This note sets out measurements from article PMC8612984 (Journal of immunology (Baltimore, Md. : 1950), 2021).

Numbering of substitutions follows the chain as printed. Names and notes keep the numbering of the source. Values joined by “and” are separate entries in the source; they are usually repeats but may differ in a detail not shown here. Equal entries are not always repeated.

The labels stand for the following.
B1: BBK32-C R337A (residues 206–354) (domain or fragment, B. burgdorferi B31, UniProt O50835 206-354, looked up)
chain: SNRYQSYLEGVKYNVDSAIQTITKIYNTYTLFSTKLTQMYSTRLDNFAKAKAKEEAAKFTKEDLEKNFKTLLNYIQVSVKTAANFVYINDTHAKRKLENIEAEIKTLIAKIKEQSNLYEAYKAIVTSILLMADSLKEVQGIIDKNGVWY
B2: BBK32-C (C-terminal domain of B. burgdorferi BBK32), wild type (domain or fragment)
chain: SNRYQSYLEGVKYNVDSAIQTITKIYNTYTLFSTKLTQMYSTRLDNFAKAKAKEEAAKFTKEDLEKNFKTLLNYIQVSVKTAANFVYINDTHAKRKLENIEAEIKTLIAKIKEQSNLYEAYKAIVTSILLMRDSLKEVQGIID
B3: BBK32-C T239A (domain or fragment, B. burgdorferi B31, UniProt O50835 206-348, looked up)
chain: B2 chain with T34A
B4: BBK32-C N251A (domain or fragment, B. burgdorferi B31, UniProt O50835 206-348, looked up)
chain: B2 chain with N46A
B5: BBK32-C R248A (domain or fragment, B. burgdorferi B31, UniProt O50835 206-348, looked up)
chain: B2 chain with R43A
B6: BBK32-C Y323A-E324A (domain or fragment, B. burgdorferi B31, UniProt O50835 206-348, looked up)
chain: B2 chain with Y118A, E119A
B7: BBK32-C L236A (domain or fragment, B. burgdorferi B31, UniProt O50835 206-348, looked up)
chain: B2 chain with L31A
B8: BBK32-C Y245A (domain or fragment, B. burgdorferi B31, UniProt O50835 206-348, looked up)
chain: B2 chain with Y40A
B9: BBK32-C T331A (domain or fragment, B. burgdorferi B31, UniProt O50835 206-348, looked up)
chain: B2 chain with T126A
B10: BBK32-C T242A (domain or fragment, B. burgdorferi B31, UniProt O50835 206-348, looked up)
chain: B2 chain with T37A
B11: BBK32-C K327A (domain or fragment, B. burgdorferi B31, UniProt O50835 206-348, looked up)
chain: B2 chain with K122A
B12: BBK32-C E324A (domain or fragment, B. burgdorferi B31, UniProt O50835 206-348, looked up)
chain: B2 chain with E119A
B13: BBK32-C T242A-Y245A (domain or fragment, B. burgdorferi B31, UniProt O50835 206-348, looked up)
chain: B2 chain with T37A, Y40A
B14: BBK32-C K327A-T331A (domain or fragment, B. burgdorferi B31, UniProt O50835 206-348, looked up)
chain: B2 chain with K122A, T126A
B15: BBK32-C Y323A (domain or fragment, B. burgdorferi B31, UniProt O50835 206-348, looked up)
chain: B2 chain with Y118A
B16: BBK32-C L236A-T239A (domain or fragment, B. burgdorferi B31, UniProt O50835 206-348, looked up)
chain: B2 chain with L31A, T34A

One test addresses T1, C1r-CCP2-SP, recombinant autoactivated domain truncation of human C1r (human, UniProt P00736 375-703).
T1 sequence: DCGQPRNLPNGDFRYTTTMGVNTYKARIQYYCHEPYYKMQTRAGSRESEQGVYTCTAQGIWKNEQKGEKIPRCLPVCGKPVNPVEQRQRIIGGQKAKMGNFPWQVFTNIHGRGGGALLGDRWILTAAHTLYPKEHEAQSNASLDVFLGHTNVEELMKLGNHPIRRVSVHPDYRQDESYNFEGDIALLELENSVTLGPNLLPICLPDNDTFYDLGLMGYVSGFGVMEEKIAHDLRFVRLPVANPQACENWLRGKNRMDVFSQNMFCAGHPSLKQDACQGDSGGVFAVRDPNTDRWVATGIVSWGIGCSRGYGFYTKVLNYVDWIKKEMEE
In words: SPR. Background: SPR reads the build-up and loss of mass on a sensor chip optically.
For B1, the Kd was determined as 0.78 ± 0.13 nM, the koff was determined as 8.8e-05 s⁻¹ and the kon was 110000 M⁻¹ s⁻¹.
For B2, the Kd is 0.45 nM and 0.78 nM; the dissociation rate constant (koff) is 4.5e-05 s⁻¹ and 6.3e-05 s⁻¹; the kon was 100000 M⁻¹ s⁻¹ and 81000 M⁻¹ s⁻¹.
With B3, the Kd amounted to 0.17 nM, the koff stood at 4.4e-05 s⁻¹ and the on-rate constant (kon) came to 260000 M⁻¹ s⁻¹.
As to B4, the Kd was 0.61 ± 0.21 nM, the koff was 0.00011 s⁻¹ and the kon amounted to 180000 M⁻¹ s⁻¹.
As to B5, the dissociation constant (Kd) was 5.8 ± 0.1 nM, the koff is 0.0013 s⁻¹ and the kon worked out at 220000 M⁻¹ s⁻¹.
With B6, the Kd was found to be 480 ± 51 nM, the off-rate constant (koff) came out at 0.046 s⁻¹ and the kon amounted to 100000 M⁻¹ s⁻¹.
For the molecule B7, the dissociation constant (Kd) amounted to 0.15 nM, the off-rate constant (koff) came to 3.5e-05 s⁻¹ and the association rate constant (kon) stood at 230000 M⁻¹ s⁻¹.
On to B8, for which the Kd is 1.3 ± 0.01 nM, the off-rate constant (koff) amounted to 0.00035 s⁻¹ and the kon worked out at 280000 M⁻¹ s⁻¹.
As to B9, the dissociation constant Kd was found to be 0.73 ± 0.3 nM, the dissociation rate constant (koff) came to 8.2e-05 s⁻¹ and the kon amounted to 140000 M⁻¹ s⁻¹.
On to B10, for which the Kd came out at 0.96 nM, the off-rate (koff) was 9.9e-05 s⁻¹ and the kon stood at 100000 M⁻¹ s⁻¹.
Regarding B11, the Kd was found to be 120 ± 50 nM, the dissociation rate constant (koff) amounted to 0.0075 s⁻¹ and the on-rate constant (kon) turned out to be 97000 M⁻¹ s⁻¹.
Taken in the same sequence, the figures for B12 were 1.6 ± 0.07 nM, 0.00034 s⁻¹ and 200000 M⁻¹ s⁻¹.
B13: the Kd was determined as 57 ± 0.1 nM, the koff is 0.012 s⁻¹ and the association rate constant (kon) was determined as 210000 M⁻¹ s⁻¹.
With B14, the Kd came to 510 ± 200 nM, the off-rate (koff) was 0.026 s⁻¹ and the kon worked out at 37000 M⁻¹ s⁻¹.
As for B15, the dissociation constant (Kd) was 0.87 ± 0.06 nM, the koff was found to be 0.00016 s⁻¹ and the kon turned out to be 180000 M⁻¹ s⁻¹.
For the molecule B16, the Kd was 0.18 nM, the off-rate constant (koff) amounted to 4.3e-05 s⁻¹ and the on-rate (kon) is 240000 M⁻¹ s⁻¹.

In the next test the target is T1, C1r-CCP2-SP, recombinant autoactivated …. In words: SEC-MALS + other: SEC-SAXS.
Regarding B2, the “stoichiometry N” value came out at 1.

The term Kd denotes a measure of binding affinity in units of concentration. A word on the koff: it is the first-order rate constant of dissociation. The term kon denotes a measure of how fast the partners come together. As a reminder, the stoichiometry N is the number of molecules, sites or subunits per partner or assembly.
